Measurements taken from article PMC2175346.
Substitutions are numbered along the chain they refer to.

T1: I-PpoI (Physarum polycephalum, UniProt Q94702 1-163)
T1 sequence: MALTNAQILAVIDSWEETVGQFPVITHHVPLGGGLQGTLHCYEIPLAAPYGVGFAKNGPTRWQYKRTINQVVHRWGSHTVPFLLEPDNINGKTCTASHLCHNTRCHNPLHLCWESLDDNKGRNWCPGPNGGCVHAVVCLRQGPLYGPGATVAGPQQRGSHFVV

T2: I-AniI (Aspergillus nidulans, UniProt P03880 237-488)
T2 sequence: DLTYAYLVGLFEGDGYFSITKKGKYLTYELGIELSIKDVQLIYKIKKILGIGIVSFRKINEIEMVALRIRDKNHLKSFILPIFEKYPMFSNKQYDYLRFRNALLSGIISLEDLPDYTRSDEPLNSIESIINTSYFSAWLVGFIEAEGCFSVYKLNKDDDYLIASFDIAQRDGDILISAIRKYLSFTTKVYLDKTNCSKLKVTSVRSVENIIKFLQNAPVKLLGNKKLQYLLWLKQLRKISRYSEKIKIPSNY

B1: I-PpoI RR palindrome (dsDNA)
DNA 1: GGGGGTGCAGTGGCTACCTTAAGGTAGCCAGACGTGGGGG
DNA 2: CCCCCACGTCTGGCTACCTTAAGGTAGCCACTGCACCCCC
B2: I-AniI WT site (dsDNA)
DNA 1: CCTTCCCTGAGGAGGTTTCTCTGTAAACCCTTCC
DNA 2: GGAAGGGTTTACAGAGAAACCTCCTCAGGGAAGG
B3: I-AniI WT-OPT site (dsDNA)
DNA 1: B2 DNA 1 with T18A, A25T
DNA 2: B2 DNA 2 with T10A, A17T
B4: I-PpoI LL palindrome (dsDNA)
DNA 1: GGGGGTGCAGTGACTCTCTTAAGAGAGTCAGACGTGGGGG
DNA 2: CCCCCACGTCTGACTCTCTTAAGAGAGTCACTGCACCCCC

What was measured:
I-PpoI = molecular target: T1, I-PpoI; assay: ITC
I-AniI = molecular target: T2, I-AniI; assay: ITC

Row | Binder | Kd (I-PpoI) [nM] | Kd (I-AniI) [nM]
1 | B1 | 23 ± 1.6 | –
2 | B2 | – | 96 ± 10
3 | B3 | – | 8 ± 1
4 | B4 | 87 ± 8.8 | –
